The assay has as its system target antigen-expressing cell line. The assay can be described thus: Jurkat NFAT-GFP assay, coculture with target cell lines expressing the respective target antigen (summary Table 10A). The format is cell-based, human. On the set-up: key: The signs +/−, +, 2+ etc. after the name of the cell lines indicate the relative degree of positivity on the Jurkat-NFAT-GFP assay as measured by the % GFP positive cells; +: relative degree of positivity on the Jurkat-NFAT-GFP assay as measured by the % GFP positive cells; 2+: relative degree of positivity on the Jurkat-NFAT-GFP assay as measured by the % GFP positive cells. Conditions: relative % GFP positive cells; for NFAT-GFP ASSAY Positive Cell lines: RAJI: SIR-expressing Jurkat-NFAT-GFP cells cocultured with RAJI. In short, it runs like this: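 Positivity is scored when SIR-expressing reporter Jurkat cells show more GFP-positive cells than parental controls after coculture with the antigen-bearing line. Effector-to-target ratio is about 1:2, coculture lasts roughly 4–18 hours, and GFP is quantified by FACS.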

We go through six molecules from patent US12269859B2, “Synthetic immune receptors and methods of use thereof” (Angeles Therapeutics, Inc., priority 2016, dated 2025).

B1: 030817-X05 (protein)
chain: MALPVTALLLPLALLLHAARPDIQMTQSPSSLSASVGDRVTITCRASSSVSYMHWYQQKPGKAPKPLIYAPSNLASGVPSRFSGSGSGTDFTLTISSLQPEDFATYYCQQWSFNPPTFGQGTKVEIKRLEDLKNVFPPEVAVFEPSKAEIAHTQKATLVCLATGFYPDHVELSWWVNGKEVHSGVCTDPQPLKEQPALNDSRYCLSSRLRVSATFWQNPRNHFRCQVQFYGLSENDEWTQDRAKPVTQIVSAEAWGRADCGITSASYHQGVLSATILYEILLGKATLYAVLVSALVLMAMVKRKDSRGRAKRSGSGATNFSLLKQAGDVEENPGPTSMDWIWRILFLVGAATGAHSFEEVQLVESGGGLVQPGGSLRLSCAASGYTFTSYNMHWVRQAPGKGLEWVGAIYPGNGDTSYNQKFKGRFTISVDKSKNTLYLQMNSLRAEDTAVYYCARVVYYSNSYWYFDVWGQGTLVTVSSTRIQNPDPAVYQLRDSKSSDKSVCLFTDFDSQTNVSQSKDSDVYITDKCVLDMRSMDFKSNSAVAWSNKSDFACANAFNNSIIPEDTFFPSSDVPCDVKLVEKSFETDTNLNFQNLSVIGFRILLLKVAGFNLLMTLRLWSSRAKRSGSGVKQTLNFDLLKLAGDVESNPGPSRGHMTEYKPTVRLATRDDVPRAVRTLAAAFADYPATRHTVDPDRHIERVTELQELFLTRVGLDIGKVWVADDGAAVAVWTTPESVEAGAVFAEIGPRMAELSGSRLAAQQQMEGLLAPHRPKEPAWFLATVGVSPDHQGKGLGSAVVLPGVEAAERAGVPAFLETSAPRNLPFYERLGFTVTADVEVPEGPRTWCMTRKPGA
Regarding B1, the “NFAT-GFP ASSAY Positive Cell lines: RAJI” value is reported as “RAJI (+/−)”.

B2: 030817-W07 (protein)
chain: MALPVTALLLPLALLLHAARPSTVMTQSPDSLAVSLGERATINCKSSQSNSNDVAWYQQKPGQSPKVLIYFASNRYSGVPDRFSGSGYGTDFTLTISSLQAEDVAVYFCQQDYSSPLTFGAGTKLELKRADALEDLKNVFPPEVAVFEPSKAEIAHTQKATLVCLATGFYPDHVELSWWVNGKEVHSGVCTDPQPLKEQPALNDSRYCLSSRLRVSATFWQNPRNHFRCQVQFYGLSENDEWTQDRAKPVTQIVSAEAWGRADCGITSASYHQGVLSATILYEILLGKATLYAVLVSALVLMAMVKRKDSRGRAKRSGSGATNFSLLKQAGDVEENPGPTSMDWIWRILFLVGAATGAHSFEQIQLVQSGSELKKPGASVKVSCKASGYTFTNFGVNWVRQAPGKGLEWMGWINTYTGEPSYAQGFTGRFVFSLDASVSTAYLQISSLKAEDTATYFCTRRTNYYGTSYYYAMDYWGQGTTVTVSSAKTTTRIQNPDPAVYQLRDSKSSDKSVCLFTDFDSQTNVSQSKDSDVYITDKCVLDMRSMDFKSNSAVAWSNKSDFACANAFNNSIIPEDTFFPSSDVPCDVKLVEKSFETDTNLNFQNLSVIGFRILLLKVAGFNLLMTLRLWSSRAKRSGSGVKQTLNFDLLKLAGDVESNPGPSRGHMTEYKPTVRLATRDDVPRAVRTLAAAFADYPATRHTVDPDRHIERVTELQELFLTRVGLDIGKVWVADDGAAVAVWTTPESVEAGAVFAEIGPRMAELSGSRLAAQQQMEGLLAPHRPKEPAWFLATVGVSPDHQGKGLGSAVVLPGVEAAERAGVPAFLETSAPRNLPFYERLGFTVTADVEVPEGPRTWCMTRKPGA
Consider B2, for which the “NFAT-GFP ASSAY Positive Cell lines: RAJI” value is on record as “RAJI (+/−)”.

B3: 030817-F07 (protein)
chain: MALPVTALLLPLALLLHAARPEIVLTQSPGTLSLSPGERATLSCRASSSVPYIHWYQQKPGQAPRLLIYATSALASGIPDRFSGSGSGTDFTLTISRLEPEDFAVYYCQQWLSNPPTFGQGTKLELKRLEIQNPDPAVYQLRDSKSSDKSVCLFTDFDSQTNVSQSKDSDVYITDKCVLDMRSMDFKSNSAVAWSNKSDFACANAFNNSIIPEDTFFPSSDVPCDVKLVEKSFETDTNLNFQNLSVIGFRILLLKVAGFNLLMTLRLWSSRAKRSGSGVKQTLNFDLLKLAGDVESNPGPTSMDWIWRILFLVGAATGAHSFEEVQLVQSGAEVKKPGESLKLSCKGSGRTFTSYNMHWVRQMPGKGLEWMGAIYPLTGDTSYNQKSKLQVTISADKSISTAYLQWSSLKASDTAMYYCARSTYVGGDWQFDVWGKGTTVTVSSTREDLKNVFPPEVAVFEPSKAEIAHTQKATLVCLATGFYPDHVELSWWVNGKEVHSGVCTDPQPLKEQPALNDSRYCLSSRLRVSATFWQNPRNHFRCQVQFYGLSENDEWTQDRAKPVTQIVSAEAWGRADCGITSASYHQGVLSATILYEILLGKATLYAVLVSALVLMAMVKRKDSRGRAKRSGSGATNFSLLKQAGDVEENPGPSRGHMTEYKPTVRLATRDDVPRAVRTLAAAFADYPATRHTVDPDRHIERVTELQELFLTRVGLDIGKVWVADDGAAVAVWTTPESVEAGAVFAEIGPRMAELSGSRLAAQQQMEGLLAPHRPKEPAWFLATVGVSPDHQGKGLGSAVVLPGVEAAERAGVPAFLETSAPRNLPFYERLGFTVTADVEVPEGPRTWCMTRKPGA
Turning to B3, the “NFAT-GFP ASSAY Positive Cell lines: RAJI” value is recorded as “RAJI (+/−)”.

B4: 030817-E07 (protein)
chain: MALPVTALLLPLALLLHAARPEIVLTQSPSSLSASVGDRVTITCRASSSLSFMHWYQQKPGKAPKPWIYATSNLASGVPSRFSGSGSGTDYTLTISSLQPEDFATYFCHQWSSNPLTFGGGTKVEIKLEIQNPDPAVYQLRDSKSSDKSVCLFTDFDSQTNVSQSKDSDVYITDKCVLDMRSMDFKSNSAVAWSNKSDFACANAFNNSIIPEDTFFPSSDVPCDVKLVEKSFETDTNLNFQNLSVIGFRILLLKVAGFNLLMTLRLWSSRAKRSGSGVKQTLNFDLLKLAGDVESNPGPTSMDWIWRILFLVGAATGAHSFEQVQLVQSGAEVKKPGASVKVSCKASGYTFTSYNMHWVRQAPGQRLEWIGAIYPGNGDTSYNQKFKGRVTVTRDTSANTAYMELSSLKSEDTAVYYCARSHYGSNYVDYFDYWGQGTLVTVSSTREDLKNVFPPEVAVFEPSKAEIAHTQKATLVCLATGFYPDHVELSWWVNGKEVHSGVCTDPQPLKEQPALNDSRYCLSSRLRVSATFWQNPRNHFRCQVQFYGLSENDEWTQDRAKPVTQIVSAEAWGRADCGITSASYHQGVLSATILYEILLGKATLYAVLVSALVLMAMVKRKDSRGRAKRSGSGATNFSLLKQAGDVEENPGPSRGHMTEYKPTVRLATRDDVPRAVRTLAAAFADYPATRHTVDPDRHIERVTELQELFLTRVGLDIGKVWVADDGAAVAVWTTPESVEAGAVFAEIGPRMAELSGSRLAAQQQMEGLLAPHRPKEPAWFLATVGVSPDHQGKGLGSAVVLPGVEAAERAGVPAFLETSAPRNLPFYERLGFTVTADVEVPEGPRTWCMTRKPGA
Regarding B4, the “NFAT-GFP ASSAY Positive Cell lines: U266” value (SIR-expressing Jurkat-NFAT-GFP cells cocultured with U266) is listed as “U266 (+/−)”.

B5: 022817-T04 (protein)
chain: MALPVTALLLPLALLLHAARPEIVLTQSPATLSLSPGERATLSCRASQSVSSYLAWYQQKPGQAPRLLIYDASNRATGIPARFSGSGSGTDFTLTISSLEPEDFAVYYCQQRSNWPITFGQGTRLEIKLEGKPIPNPLLGLDSTGSGEDLKNVFPPEVAVFEPSKAEIAHTQKATLVCLATGFYPDHVELSWWVNGKEVHSGVCTDPQPLKEQPALNDSRYCLSSRLRVSATFWQNPRNHFRCQVQFYGLSENDEWTQDRAKPVTQIVSAEAWGRADCGITSASYHQGVLSATILYEILLGKATLYAVLVSALVLMAMVKRKDSRGRAKRSGSGATNFSLLKQAGDVEENPGPTSMDWIWRILFLVGAATGAHSFEEVQLVESGGGLVQPDRSLRLSCAASGFTFHDYAMHWVRQAPGKGLEWVSTISWNSGTIGYADSVKGRFTISRDNAKNSLYLQMNSLRAEDTALYYCAKDIQYGNYYYGMDVWGQGTTVTVSSTREQKLISEEDGSGIQNPDPAVYQLRDSKSSDKSVCLFTDFDSQTNVSQSKDSDVYITDKCVLDMRSMDFKSNSAVAWSNKSDFACANAFNNSIIPEDTFFPSSDVPCDVKLVEKSFETDTNLNFQNLSVIGFRILLLKVAGFNLLMTLRLWSSRAKRSGSGVKQTLNFDLLKLAGDVESNPGPSRGHMTEYKPTVRLATRDDVPRAVRTLAAAFADYPATRHTVDPDRHIERVTELQELFLTRVGLDIGKVWVADDGAAVAVWTTPESVEAGAVFAEIGPRMAELSGSRLAAQQQMEGLLAPHRPKEPAWFLATVGVSPDHQGKGLGSAVVLPGVEAAERAGVPAFLETSAPRNLPFYERLGFTVTADVEVPEGPRTWCMTRKPGA
Take B5: the “NFAT-GFP ASSAY Positive Cell lines: NALM6” value (SIR-expressing Jurkat-NFAT-GFP cells cocultured with NALM6) was “(2+)”.

B6: 012517-Q12 (protein)
chain: MALPVTALLLPLALLLHAARPLEGKPIPNPLLGLDSTGSGEDLKNVFPPEVAVFEPSKAEIAHTQKATLVCLATGFYPDHVELSWWVNGKEVHSGVCTDPQPLKEQPALNDSRYCLSSRLRVSATFWQNPRNHFRCQVQFYGLSENDEWTQDRAKPVTQIVSAEAWGRADCGITSASYHQGVLSATILYEILLGKATLYAVLVSALVLMAMVKRKDSRGRAKRSGSGATNFSLLKQAGDVEENPGPTSMALPVTALLLPLALLLHAARPEIVLTQSPGTLSLSPGERATLSCRASSSVPYIHWYQQKPGQAPRLLIYATSALASGIPDRFSGSGSGTDFTLTISRLEPEDFAVYYCQQWLSNPPTFGQGTKLELKRGGGGSGGGGSGGGGSEVQLVQSGAEVKKPGESLKLSCKGSGRTFTSYNMHWVRQMPGKGLEWMGAIYPLTGDTSYNQKSKLQVTISADKSISTAYLQWSSLKASDTAMYYCARSTYVGGDWQFDVWGKGTTVTVSSTREQKLISEEDGSGIQNPDPAVYQLRDSKSSDKSVCLFTDFDSQTNVSQSKDSDVYITDKCVLDMRSMDFKSNSAVAWSNKSDFACANAFNNSIIPEDTFFPSSDVPCDVKLVEKSFETDTNLNFQNLSVIGFRILLLKVAGFNLLMTLRLWSSRAKRSGSGVKQTLNFDLLKLAGDVESNPGPSRGHMTEYKPTVRLATRDDVPRAVRTLAAAFADYPATRHTVDPDRHIERVTELQELFLTRVGLDIGKVWVADDGAAVAVWTTPESVEAGAVFAEIGPRMAELSGSRLAAQQQMEGLLAPHRPKEPAWFLATVGVSPDHQGKGLGSAVVLPGVEAAERAGVPAFLETSAPRNLPFYERLGFTVTADVEVPEGPRTWCMTRKPGA
Consider B6, for which the “NFAT-GFP ASSAY Positive Cell lines: RAJI” value is reported as “RAJI (+)”.
